Test: soluble on expression in E. coli; label from the status in PepcDB or PDB records

Sequence | soluble on expression in E. coli
SREWRTKIQAQIDRFPIGDREGEWQTMIQKMVSSYLVHHGYCATAEAFARSTDQTVLEELASIKNRQRIQKLVLAGRMGEAIETTQQLYPSLLERNPNLLFTLKVRQFIEMVNGTDSEVRCLGGRSPKSQDSYPVSPRPFSSPSMSPSHGMNIHNLASGKGSTAHFSGFESCSNGVISNKAHQSYCHSNKHQSSNLNVPELNSINMSRSQQVNNFTSNDVDMETDHYSNGVGETSSNGFLNGSSKHDHEMEDCDTEMEVDSSQLRRQLCGGSQAAIERMIHFGRELQAMSEQLRRDCGKNTANKKMLKDAFSLLAYSDPWNSPVGNQLDPIQREPVCSALNSAILETHNLPKQPPLALAMGQATQCLGLMARSGIGSCAFATVEDYLH | soluble
MGSDKIHHHHHHMIQGKKVVSTLDVSDLEPGKKHLLYFQGVEMPTGQHWHVSVTVAKGAKPGKRGVLVSGVHGDEMSSVHTIQTVMSQLDPAQMSGTVMAVTDVSRPAMEGMQRRWPNFGRGTDLIDMNREWPGNENGVTAASRQAGLLFNRLLRPNADFAIDFHTGTTGFDVAAFNIGGMDVPEIKAMLELYPVGQIFDNHVYPSVLHNAFIAAGIPSFCPEIGAARVLDLEMISLFVEGTMNVLKHHGIVAGPMGRTGKDVHVFVGNSAFPILATAGGLVEHLVKLNDKVEAGQKLAIQRDSFGEVVAEYASGVAGEISGLRSDAMSEPGNPLVFVLFNKPGPEDVGGYPE | not soluble
MSLVDDPLIVVNSEKVDKEYAELLMDKYYSKRTLEINSDNEIVVTENIIYNVPALDEFEINDGKGNLLVEFTKSGETVTYKNFEYEEELESDDEGDEVTFMGKTYKLIEYDEDEKIVLGNKVEDTETTEEFSYDAFTFKIIGMDSTGQILVSVYEGSDRIENVKMYPDDTYFVSGSKISIYYDEYMESGDTPYFFFEIYDSLEIEDGETISGYSNIDTDLDGKRINLEYESPKSLSQNFELLNYKVELTDVSDEDLTVFFTVTQNLNYEFDMDEGTKYFGNNIFAVKIENDEDDDSDDESYLYKNNKKYSEIVDYQGSVQLVDQDELLSASSDLILIGGPVSNKVTESIQNSLSVEVTNDYPGEGKGIIQTITNPNNDESTILVLAGSDRDGTKACVLALNQGLYSGSGNLVVKLTGDDSVSVEGHHHHHH | not soluble
GGGSGGSKKDEHKQQGELYMWDSIDQKWTRHYCAIADAKLSFSDDIEQTMEEDNPLGSLCRGILDLNTYNVVKAPQGKNQKSFVFILEPKQQGDPPVEFATDRVEELFEWFQSIREITWKIDTK | soluble
MKIRDLLKARRGPLFSFEFFPPKDPEGEEALFRTLEELKAFRPAFVSITYGAMGSTRERSVAWAQRIQSLGLNPLAHLTVAGQSRKEVAEVLHRFVESGVENLLALRGDPPRGERVFRPHPEGFRYAAELVALIRERYGDRVSVGGAAYPEGHPESESLEADLRHFKAKVEAGLDFAITQLFFNNAHYFGFLERARRAGIGIPILPGIMPVTSYRQLRRFTEVCGASIPGPLLAKLERHQDDPKAVLEIGVEHAVRQVAELLEAGVEGVHFYTLNKSPATRMVLERLGLRPASGQP | soluble
DERVFEQELENGLRLFIIPKPGFQKTFVTYTTQFGSLDNQFKPLGQDQFVTVPDGVAHFLEHKLFEKEEEDLFTAFAEDNAQANAFTSFDRTSYLFSATDNIENNIKRLLTMVETPYFTKETVDKEKGIIAEEIKMYQEQPGYKLMFNTLRAMYQRHPIRVDIAGSVESIYDITKDDLYLCYETFYHPSNMVLFVVGDVNPEEICRIVKQHEDARNKVNQPKIER | not soluble
MCQFIETIRIEDGQVYNLSYHTARMNRTRAAFWKEAAPIDLSGFISPPSLSGIWKCRIVYDKEIEEVGYTPYQMRMVSSLRPVASDTIDYSYKSTNREELNDLFARRGKADDILIVKDGYLTDTSIANIALYDGHTWYTPAHPLLQGTKRAELLDNRFIVEKDIRQAQLGDYSHIMLFNAMIDWKRLIIPVNEKYFIL | not soluble
MNRDDAPPIPDALSHRQLNRWLETAMQESSTPAKESNDILSAELERWANHTRFLLQRMAHKGDAIGSDRSPQQVMALGSFRTHLMLGLQALKASQPGR | not soluble
KRATQFTASILSLYNSEQMLQKTDPMSVISSAMVAATLDLPIDKNLGYAWIVPYGGKAQFQLGYKGYIQLALRTGQYKSINCIPIHEGELQKWNPLTEEIEIDFEKRESDAVIGYAAYFELINGFRKTVYWTKAQVEKHKKKFSKSDFGWKNDWDAMALKTVLKAVLSKWGILSVEMQKAVIEEDETRERIDITNEADSSEIIDSE | soluble
MRVGIPTETKNNEFRVAITPAGVAELTRRGHEVLIQAGAGEGSAITDADFKAAGAQLVGTADQVWADADLLLKVKEPIAAEYGRLRHGQILFTFLHLAASRACTDALLDSGTTSIAYETVQTADGALPLLAPMSEVAGRLAAQVGAYHLMRTQGGRGVLMGGVPGVEPADVVVIGAGTAGYNAARIANGMGATVTVLDINIDKLRQLDAEFCGRIHTRYSSAYELEGAVKRADLVIGAVLVPGAKAPKLVSNSLVAHMKPGAVLVDIAIDQGGCFEGSRPTTYDHPTFAVHDTLFYCVANMPASVPKTSTYALTNATMPYVLELADHGWRAACRSNPALAKGLSTHEGALLSERVATDLGVPFTEPASVLAHHHHHH | soluble
SPMPAGRPRFLRSMALSSQTREWLEKGMPTEAEAGVPIRLQERAANTAPQARAEERHTQPADAAAPHARAERGRTLQAPASTSPLYTGAVPRANRIVQQLVEAGADLANIRTMFRNMLRGEEMILSRAEQNVFLQHFPDMLPCGIDRNSELAIALREALRRADSQQAARAPARTPPRSS | soluble
MANSITADEIREQFSQAMSAMYQQEVPQYGTLLELVADVNLAVLENNPQLHEKMVNADELARLNVERHGAIRVGTAQELATLRRMFAIMGMYPVSYYDLSQAGVPVHSTAFRPIDDASLARNPFRVFTSLLRLELIENEILRQKAAEILRQRDIFTPRCRQLLEEYEQQGGFNETQAQEFVQEALETFRWHQSATVDEETYRALHNEHRLIADVVCFPGCHINHLTPRTLDIDRVQSMMPECGIEPKILIEGPPRREVPILLRQTSFKALEETVLFAGQKQGTHTARFGEIEQRGVALTPKGRQLYDDLLRNAGTGQDNLTHQMHLQETFRTFPDSEFLMRQQGLAWFRYRLTPSGEAHRQAIHPGDDPQPLIERGWVVAQPITYEDFLPVSAAGIFQSNLGNETQTRSHGNASREAFEQALGCPVLDEFQLYQEAEERSKRRCGLL | not soluble
NLSASNRALPVLTLFTKAPCPLCDEAKEVLQPYKDRFILQEVDITLPENSTWYERYKFDIPVFHLNGQFLMMHRVNTSKLEKQLRKL | soluble
MNSKVGCLMAILLLAGCAKQTPPPQANNGWLKKTPQGNSLNVAKSSAGSTTVAYSDVIKQAASHYGVDETLIKAIIQVESGYNPDVVSRSNAVGLMQIKASTAGRDAYRMKGRNGQPSSRELKDPVKNIDIGAAYINILQNQQLAGINDPQTLRYATIVSYANGAGAMLRTFSSDKRLAVNKINSLSPNEFYQHIQKKHPAAQAPRYLWKVDTAYRAMSE | not soluble
MFGSSGFGNKSMFGGSNISTSTTTPAANTTQNDDFLVDGAPEDTIQVIKFSPTPQDKPMLACGSWDGTIRVWMFNDANTFEGKAQQNIPAPILDIAWIEDSSKIFIACADKEARLWDLASNQVAVVGTHDGPVKTCHWINGNNYQCLMTGSFDKTLRFWDMKNLPNQTQMAQIQLPERVYAADVLYPMAVVALANKHIKVYNLENGPTEVKDIESQLKFQIRCISIFKDKSNQNPAGFALGSIEGRVAVQYVDVANPKDNFTFKCHRSAELVNGFQEIYAVNDICFHPQHGTLVTIGSDGRYSMWDKDARTKLKTSEPHPMPLTCCDVHSSGAFLVYALGYDWSRGHEGNTQPGSKIVIHKCIEDMKPRPTKK | not soluble
VKPKGAFKAFTGEGQKLGSTAPQVLNTSSPAQQAENEAKASSSILINEAEPTTNIQIRLADGGRLVQKFNHSHRISDIRLFIVDARPAMAATSFVLMTTFPNKELADENQTLKEANLLNAVIVQRLT | soluble
MSEAIGLIETVGLVAAIEAADAAVKAANVKLIGYELARGSGLTTVKIKGDVGAVKAAVEAGKAAALRVGKVYAVHIIPRPDKQVGFIVGEEKNLTLLMPVIEKEEKEKNDSEPKIKVTEGETIEKREIEQKFEKEDKSEAKEETGEVEEEDDKEGMAYTCNLCKDPGCPRKKGEPRTLCIHYNELKMR | not soluble
MRLDGKTALITGSARGIGRAFAEAYVREGARVAIADINLEAARATAAEIGPAACAIALDVTDQASIDRCVAELLDRWGSIDILVNNAALFDLAPIVEITRESYDRLFAINVSGTLFMMQAVARAMIAGGRGGKIINMASQAGRRGEALVGVYCATKAAVISLTQSAGLNLIRHGINVNAIAPGVVDGEHWDGVDAKFADYENLPRGEKKRQVGAAVPFGRMGRAEDLTGMAIFLATPEADYIVAQTYNVDGGNWMS | soluble
MGIHLFWDSRVPVGLSRPVSEELSAVLEMPVSRIDDGIFPLEGFDPVRNQYDAVKVLLKLDMFRRRMPQIFKPADMDLEFYNKFNHLHEKILLVTPGDLYEPLADFVFGLAYPKLGVAIVSPHRLQNEFYGKYADDSALIDRIVKEGAHEIGHLFGLGHCDNPGCIMYCPRNLDELDRKRKYFCGKCRVQLNGDTLEDDLFSLEHHHHHH | soluble
MGSDKIHHHHHHMKAANLAPCLMAMLLCTACEQLPIARKAPPPPPPATTAAKPAEQPRPTPIAAHDISLAGTCRRTEDDGFREDAVMRVVSNDVKSLKWKLWVSKRGTCQFDLADFKQVQKTPHIVLEATDGTQCKLLIWQDPRRVTLAHANCQQRCTPGIYEQAWPVLFNPRNGDCAEIR | not soluble
MCGIFAYLNFLAPKKRSEIVDILVQGLQRMEYRGYDSAGIAIDGSNDIENPHSKIALLRKRGKVSVLNDYIKENNEKLNMDMEYNIHCGIAHTRWATHGSPRDVNSHPHRSNDNNEFLVVHNGIITNYREIKEYLEKKGHKFESETDTEVIAKLTQHVHDRYPDFSFRQLVETVIQQLEGAFALAFKSSRFPGQLVASRRGSPLLVGIKSNSTLHTSHFPVSYSKGRCFMSNNATHLREETSFVETPNNILDLSIAVRNPSGSAKLPDNNSTTRPFDSTDFEVEYFIASDAAAIIEHTKQVLFLEDDDVAFVEDGSLTIHRISRHADSGEQKREVQLLELEIQEIMKGSYKTFMQKEIFEQPESVVNTMRGRVLPSGQVVLGGLKEYLPAIKRCRRLIMVACGTSYHSAIACRQVLEELSELPVVVELASDFLDRETPIFRNDVCLFISQSGETADTLMALRYCKPRGALTIGVTNTVGSSIGRESHCGIHINAGPEIGVASTKAYTSQIVSLLLFALTISEDRISKMKRRAEIIDALNNLPILIRDVLDLDDQVLKIAEQIYKDKSLLIMGRGLNFATCLEGALKIKELSYMHCEGIMSGELKHGPLAMVDEFLSICMVVCNDHVYKKSLNALQQVVARKGAPIIIADSSVPESDLAGMKHVLRVPRTVDCVQNILTVIPLQLLSYHIAELNGANVDRPRNLAKSVTVE | not soluble
MKDGMRVGERFTHDFVVPPHKTVRHLYPESPEFAEFPEVFATGFMVGLMEWACVRAMAPYLEPGEGSLGTAICVTHTAATPPGLTVTVTAELRSVEGRRLSWRVSAHDGVDEIGSGTHERAVIHLEKFNAKVRQKTPAG | soluble
MSPLKPLYKLYEWYISRNLRRDRMPRHVAIIMDGNRRYSKLQGSMNPIEGHKKGIETLEKVLDWCVDLGIEIVTAYAFSTENFKRPEKEVKGLMKLFRENFEAIASNEKIHKNRVRVRAVGKLELLPEDVRRAIEIAEKSTEQYSDRLVNIAIGYDGRQEIVDATRKIAEDVKAGLIDPEDIDEDMINRNLYTAGLEDPHLIIRTSGEERLSGFLLWQSSYSELYFCDSLWPELRKVDFLRAIRSYQQRERRFGV | soluble
